Source: the domain aggregation screens of Martell et al. (2025)

Assay: soluble fraction after stress (log2 fold change); higher = more stays soluble; pooled small domains, quantitative proteomics
Conditions: stress: 50 degC
Summary of the method: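 The measure of aggregation propensity here is the base-two logarithm of the fold change in the soluble amount of each protein after stress. A higher value means more of that protein stays in solution. Stress was applied at 50°C to pooled libraries of small protein domains, read out by high-throughput quantitative proteomics.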

Row | Sequence | soluble fraction (log2)
1 | HMAEVALFVNGSDVNLRSGPGQESTRVIGSLNLGDEVRIKSQNGQWREVYVPKTRQVGWVAHWLLSEAPP | 0.192
2 | HMNRPYVELFSGLGQEEAQQIVQKLQEDEVDYKFSGDSTILVKEDVVDQTKATLVQEGYPKS | 0.0181
3 | HMILYDDEYKGPRYRYGLHSRPLSPGAVPKGFIIHSDRPHPDFRHGTLDYPVKLPDDRAANFELIFIGEFD | -1.02
4 | HMGYNDQEVKSNLITLLSTSKTGLSGVEISAQLGINRVTMTKFLNVFAAEGIIKQKNIGNLNLWLVEEGTE | -1.58
5 | HMKILVTDDNIRIDKYLTTQTEYSRSTIQKMIESNNILVNNKPTKSNYILRNNDEITIDENFNEE | -0.11
6 | HMTHSEYVGRHGIAATSLRPAGAATIDGSRVDVVTSGEYIEKGTPIEVMTVNGSTVRVKAVPQIP | 0.0508
7 | HMEDIASESVKRVIRKIIDDEDKKSPLSDQAIVEILAKGEGIVIARRTVAKYREMMGILPSSKRKKH | -0.209
8 | HMAFAQMAQEAAKGKDDFNDLRQEMEAVIKEQPHILLMAQFGQNPYEIAYQEAKRRKAQDQQQQQ | 0.288
9 | HMDFKKKIIESWADIAETLRGLTVDSNISDWTTKQKNAYETLADKAELAGLSIADLNSILVELGYM | -0.0868
10 | HMPGMLVVYVTGAVRQPGRMVTLAAGSRVSDAIDAAGGLADDADAQALNLSARLNDGDLVHVPSALD | 0.0161
11 | HMQKDYKTRLQEYYAKVGKKVNYMDSSTGPDHDKKFQTQVFLDKEIIGVGEGKSKKSSQQEAAKQALEKI | 0.338
12 | HMPEPAPALPAKTRVSIRRETGGIIWHEGAWTISPPIRAYDGRWYVAVTTARKGIEFVPVSSVIRS | -1.07
13 | HMRMSQLSRLISILTLLKSKRLLTATELAEKYDVSIRTVYRDIRKLEEAGIPVYTIEGRGYSLMDNYT | -1.6
14 | HMQDTYLYPVQHNGKVRLQVELPAKGLPEDLVRLALAHPKVVEWLNGRIPTKTIAVPGRIINMVLPNQ | -0.134
15 | HMSVKLMEVKGASTVVSRQVREAVSIVFPTSSMRLDLVALKARIEGVDAVKRADVYLRNGILEIQIDER | -1.99
16 | HMDLLAESLTRREAEVAALAARGLTNRAIAELFGLSVRTAETHLHRAMGKLGANRREDLLLHADRLDPG | -0.629
17 | HMQGEKDDLWREVLDNPDAWWDNRERKNAPGGNPRYPDFKHKDSQTPLWIESRDTPQWAIDALL | 0.383
18 | HMYPNEFPRKVMSVFESSGLEMFRTIEMLLAIPEYETPLPYGSGVSRSDIFVLAKSAGNLVSITV | 0.00886
19 | HMSEMLPFDEARRQFERDYLVQLLKLTSGNVSQAARLARRNRTDFYALLGRHQLEPASFKPE | -0.298
20 | HMKRRSVIVSVVRAQVRQSADEAAAVVFEAEKNVSLDYLETMPGGWVKVRHRDGQTGFVRVNQIWG | -0.807
21 | HMTQEHDESVNLGKRLLDQALSRFGTSYRQLKKSEIKRILQSSGASTFKYILHQIGLGNRVPLAIANLIV | -0.0734
22 | HMPTELVYTVPASAEGLRLDHFLVQHVPHMTRALATELTGAGGVRVNGRRAKKGDRLPSGAEVRLER | 0.178
23 | HMAIDLSLIPGNLLRELHGAVEDGDMYRIRELIRSISAVDEKVGKELLLLAERYDYERLLELVND | -0.384
24 | HMDTPPGLSPEEQAIIDIITTRGDATINELTASIDIPTPRLMGMLVDMEFRSLIAAIPGGRYRI | -1.16
25 | HMSNVKVYPNPTSGKLTIDAENYKGVEVYDTSGRLIVKSELRTIDLEEQSKGLYLLKVNANGTTQEFKVFK | 0.0145
26 | HMTSPNPLIRSTTPGLETNKKGGIIVDENEMSTRENVFAGGDAVTGAATVILAMGAGKKAAAAIDAKLQN | 0.12

Row | Sequence | soluble fraction (log2)
27 | HMANYHDIAADLRSKINHGFYEEEKKLPKQSELAADYQTSRVTIQKALNILQMEGIIYGKKGTGTFIRDSY | -0.214
28 | HMNEDYSSMVGKTGFALTILRPAGKIMIEEEVFDAVAINGYISKGQEVEVVRYENAQLYVKVK | -0.386
29 | HMITANNYFNEVERIGVETLPETLRKGHDLVVRSTNSGTNWSNYQNNESIRKVIDLYLQKLNEYVSTST | 0.131
30 | HMLLTPLEETRLVIEEIVIPQKLTIDLLPRSSAIRKLQHELITHYQLRGTSVGNEPNRRLRIYP | -0.244
31 | HMANSREIPKLAGIEQEEAVKQLLDLDLKPVIEEITDDDTDAGDVVRTDPAAGEHVAVDTEITVFISIG | -0.421
32 | HMQVPWYQRLKEKRLEYGVSQNKLATHIGISRQYMSEIETGKVTPSDSLQATLFDILEQFNPDA | -0.363
33 | HMSTPVPIEGQPTENLNLRDQPSTSGKILTTIPKGKTVTILSEKNANGWYKVSYNGKTGYVSGSYFKVTK | 0.317
34 | HMTIYPFNPNYLKDYQAYRVGLSLKEIDALLDFRSSGQWINSAEDFQRITGVSDSVLEQLIPYFKFS | -2.49
35 | HMKEIATKSELTYFIQRLLDLLEETNFFNPEERKKAMINHIEAIFRRNNLTLQELNMLHGIITSITR | -2.62
36 | HMLMSDEENAEFTKLYRQLVFKLHPDLNPNQTKDEENLWHKVQMAYKGGDLEEMRSLAIILDAQ | -0.0474
37 | HMEVNMEEKMEFVHSYIKTHKTFLFRQLLSESKSRTQVIVTFLVILELIKGGKISVTQENRTDDILINSL | -0.342
38 | HMETVRHFRLDWSQAADRLDKVLASLMNDVSRARIQEWIRLGAVSVNGEILTDVRAKVAGGDAIDVTPQTA | -0.0893
39 | HMEAEDLRDWVGARGIAYTALRPAGIAVVNGRRVDVVSEGAFVNRDDPVEVVRVEGRRIVVKP | -0.143
40 | HMTTHERHEIIELLRQVGDPMRPKEISEALGKPSGAIRFLLSKLTEEGAIKKTGYGQYTYIP | -0.359
41 | HMSMRIDTNTLNYYVQNAQISLSVLRTKINNLDQFLSGEKQPTFNQLSEIAKKINVPTGLLLLNKS | -1.45
42 | HMVEPTDFTYLKAEVETAKALKQADYTVATWKSFAGELAEAEEVIAKTDASQAEVNEALSHLQAAEKELV | 0.175
43 | HMDPSKMKIDELEIATRTATALADGGIKSVAGLIRKSASALKELDGVGDKAIAEITEALEKLGLELKG | 0.0501
44 | HMSTSERLKQVMEVKGFNLKTFSEQADIPYRTLQNYILTNREPSAESLAKLHSQLGINLNWLMSGKGEMF | -0.283
45 | HMPKLVGEVMQTLDALRREKGLSLLLVEQNARAALGVVDRVYVLERGRVVFEGSAKEAMEDQDVMEFYLG | 0.0385
46 | HMISDAEWTIMKALWQSEDKKMTLKEIAEAVADSGWSYTTVRTMVGRLVEKEAIEADESHPRNFRYSAA | -1.23
47 | HMDVIGLEAAKSAAVKDAGISSPTFTKATLDRDDGRSLYEIEFISGSTKYEYDIDALTGSVLSKKTRALS | -0.112
48 | HMNSTNYQVIITANGGLNIRAGASTAYARIGGYAKGTVVTILAESNGFGKTDKGWISLNYTSKDLD | -3.07
49 | HMDTFYKNLSKKIKTIREKLSFSQEALAKELGISRVAISQIENGDRKISAEEIAKLSRVFNVPTDILLN | 0.187
50 | HMNSIQEQIEKYVYSLAPVTIERYESLKNGDIEDIEFEKLRKSISSKIINEKIDNKKQVAILSHLKKMYSD | 0.0107
51 | HMISAQEQALRNLKLSNGMTWKALAKALGITERSILSYVAAPGTKGYREMPAEVWHKLENISGH | 0.165
52 | HMKPLRPVHLEIQTHRLSPVGILRSSFRQAGKVMHSNHGRITGLNLEQLKLIQAAFAGEALPK | -0.0219

Row | Sequence | soluble fraction (log2)
53 | HMEETLEELGKEYESAFTMYEKLWSYYKKQNYHQVNHKRSERYEILLGFVREYHPEKVEYYRELL | 0.0169
54 | HMIYQEGMQVKYQGKEYVISEIQDYKTYKTIKLDDNEGYLNGFITGSEILSFRNESELDLEI | -0.314
55 | HMNNEISINGNKIYFNKNISKVFIYDISGKLIKHKNNFNNNFIDLSEFNSAFYIIKALDINENYTTKKIFL | -1.58
56 | HMSGSKEQQIVILNNILERQLQAFGLQGNREFPMVTLKNIYNSLSKIIENAGLKNVENYFVNPEQGKQM | -0.256
57 | HMGISSESIKTFIREIVENEDPKAPLSDQTMVELLAERGIDISRRTVAKYRDEMNLPSSSKRKR | 0.462
58 | HMVLGSSVAMGQKIGDSDLTWVEVPLSSAFDRFLSEPEWRGSSDLVAARLLEAGVFLTEDDVVE | 0.0949
59 | HMTDLNQIGERIKGLRDALGYSPEKMASILEQKVDDYLAYEEGTKDISLSVLQRIEKEFDIDLSTLLFGT | -0.148
60 | HMETKPTELMLEVHELRIGMFVHLDLGWMDHPFPLNRFKISTNSQIEQIKGLRLKQVKVMTALSDPTALS | -2.21
61 | HMAPLAVIFPEPWRGMIAPEKLEGLTQALSLNPRPGYQHDPTRRYGVSLDGLDVRFTIDGDTLTVVEVVT | -0.635
62 | HMTRQRQLIYNIIQRADDHPTAEMIYARAKAEMPSIAFGTVYRNLKLMVDAGEILHIPVAGEPDRYDK | -1.98
63 | HMESKKKTYTVKSGDTLVSILKREGVPQELIFKDYLGLFLELNPQISDINKLRVGQEIVLPVPG | 0.0119
64 | HMHADIAATVVATMRQLGVLGLPRNYEIFYEALSGTNRELSLAVVSLSNRPTQDDLDRIGRRFFA | -0.785
65 | HMEFEYFQLRDHLYNLIMHPDKEKLKKDPDYLKLMSMAFSLLEDQNVGKDILEIAIKSIENFK | -0.573
66 | HMIPRGFSRYYILELLQKKPHTGKEIIDNAIKESGGRWNPSPGLIYPLLGRLLDENLIEETNDGKYK | -1.72
67 | HMKLGYTVHGNVVTVKAVANGISLYNTIGQKVAESTDGQTVKAPAHGVYILSVQGKSGSRETAKIVI | -0.39
68 | HMSVSTGTITGSVVNLREEPNTSSKVLDKLPKDTVVYVLSASGEWYNVSYGDKTGWVYGEYLA | -0.163
69 | HMKREELTQQTKQNLREAFWSLYIQKPIEKITVKEITDIAGYNRGTFYLYYKDTYDLLAKIE | -0.149
70 | HMSKININTITESELKELPISTVKQKAIQDYLIDRGFISNIYDLLDIKEITSDDVSLLKKVVNVKLPY | -0.218
71 | HMHPARITATVRVGEGDLVDIEREAELGGPIHSKGVMILSSFLGARYARTVPLSLSASLVFEQSY | 0.0114
72 | HMAGTWQDQGNGQWKYQNDDGSYATGWIEDSGKSYYLDANGIMLANTTTPDGKQVGPDGALIP | -0.141
73 | HMDNWAALLSEREVQVSRLVANGASNKEIADHLAITERTVKAHLTAVFEKLGVRDRLQLSLRVNGL | -2.01
74 | HMAPGSKAEIPEDLMKVINKDPKMKAFVATLNKANIMAISFRLSTAKKPETRERRFNLILETLKRGEKF | -3.18
75 | HMTKQRSIILDLLKANQDRHLTAEEMLELLNQNHTPVSKATLYRYLDMLVSQNAVRKFIIDDQPSAGYQYL | -1.34
76 | HMIEIKNLSFSYGKKKQSVFNDFSLTLDKGSVYGLLGKNGTGKSTLLYLMTGLLRPQAGQVLYKGVDVS | 0.0827
